Laboratory results published in patent US6146862A.

Substrate: NC(=O)C1=CN([C@@H]2O[C@H](COP(=O)(O)OP(=O)(O)OC[C@H]3O[C@@H](n4cnc5c(N)ncnc54)[C@H](O)[C@@H]3O)[C@@H](O)[C@H]2O)C=CC1
Experiment: purified protein, by the assay type
Settings: other: recombinant enzyme purified from E. coli JM109/pSDE1, assay 50 mM Tris-HCl pH 8.5, 0.06 mM DCIP, 30° C.

B1: Bacillus stearothermophilus UK-563 thermostable diaphorase, recombinant (E. coli JM109/pSDE1), SEQ ID No.1 (Geobacillus stearothermophilus) (protein)
chain: MTNVLYITAHPHDDTQSYSMAVGKAFIDTYKQVHPDHEVIHLDLYKEYIPEIDVDVFSGWGKLRSGKSFEELSDEEKAKVGRMNELCEQFISADKYVFVTPMWNFSFPPVLKAYIDAVAVAGKTFKYTEQGPVGLLTDKKALHIQARGGFYSEGPAAEMEMGHRYLSVIMQFFGVPSFEGLFVEGHAAVPEKAEEIKANAIARAKDLAHTF
- Km: 500 µM
